Biological target: bacterial fusion protein 11-2 (a hybrid of b-galactosidase and human mammary mucin) (human) (UniProt P15941)
Assay: competition RIA against 125I-labeled murine BrE-3 on 11-2 fusion protein; reciprocal of the competitor concentration giving 50% binding

Ka [M⁻¹]	Binder
2.68e+08	murine-human chimeric BrE-3 antibody (ATCC HB 11199, Chimeric BrE-3 A1C10) (antibody, V domains shown) VH: EVKLEESGGGLVQPGGSMKLSCAASGFTFSDAWMDWVRQSPEKGLEWVAEIRNKANNHATYYDESVKGRFTISRDDSKSRVYLQMISLRAEDTGLYYCTGEFANWGQGTLVTVSA VL: DVVMTQTPLSLPVSLGDQASISCRSSQNLVHNNGNTYLYWFLQKSGQSPKLLIYRASIRFSGVPDRFSGSGSETDFTLKISRVEAEDLGVYFCFQGTHVPWTFGGGTKLEIK
3.75e+08	murine BrE-3 monoclonal antibody (ATCC No. HB 10028) (antibody, V domains shown) VH: EVKLEESGGGLVQPGGSMKLSCAASGFTFSDAWMDWVRQSPEKGLEWVAEIRNKANNHATYYDESVKGRFTISRDDSKSRVYLQMISLRAEDTGLYYCTGEFANWGQGTLVTVSA VL: DVVMTQTPLSLPVSLGDQASISCRSSQNLVHNNGNTYLYWFLQKSGQSPKLLIYRASIRFSGVPDRFSGSGSETDFTLKISRVEAEDLGVYFCFQGTHVPWTFGGGTKLEIK

— patent publication US6936706
